The target in the assay is Human eotaxin (human, UniProt P51671 24-97). Kind of assay: cell-based or functional assay.
Chain of Human eotaxin (P51671 24-97 limits assumed): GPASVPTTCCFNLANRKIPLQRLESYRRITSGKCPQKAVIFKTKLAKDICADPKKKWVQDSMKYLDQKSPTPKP

B1: CAT-212 (scFv, part only; not given: scFv linker and myc/His tag, V domains shown, not shown: another chain or arm of the molecule; small tags and cut ends)
VH: QVQLVQSGGGVVQPGRSLRLSCAASGFTFSSYGMHWVRQAPGKGLEWVAVISYDGSIKHYADSVKGRFTISRDNSKNTLYLQMNSLRTDDTAVYYCAGDTDYGDIDPWGQGTMVTVSS
VL: DIQMTQSPSSVSASVGDRVTITCRASQDISSWLAWYQQKPGKAPKLLIYAASSLQSGVPSRFSGSGSGTDFTLTISSLQPEDFATYYCQQASSFPSITFGQGTRLEIK
In turn, B1 came in with an IC50, inhibition of eotaxin-induced Ca^2+ flux in CCR3 cells (area under the curve, FLIPR) of 5 nM and an IC50, inhibition of eotaxin-mediated chemotaxis of CCR3 transfected L1.2 cells of 0.65 nM.

B2: CAT-213 (antibody, human IgG4, V domains shown)
VH: QVQLVQSGGGVVQPGRSLRLSCAASGFTFSSYGMHWVRQAPGKGLEWVAVISYDGSIKHYADSVKGRFTISRDNSKNTLYLQMNSLRTDDTAVYYCAGDTDYGDIDPWGQGTMVTVSS
VL: DIQMTQSPSSVSASVGDRVTITCRASQDISSWLAWYQQKPGKAPKLLIYAASSLQSGVPSRFSGSGSGTDFTLTISSLQPEDFATYYCQQASSFPSITFGQGTRLEIKR
As to B2, the “IC50, inhibition of eotaxin-mediated chemotaxis of CCR3 transfected L1.2 cells” value was determined as 0.7 nM and the “geometric mean IC50, inhibition of eotaxin-evoked shape change of human eosinophils (forward scatter)” value stood at 0.714 nM.

The values are drawn from patent publication US20040014132A1 (AstraZeneca / MedImmune, published 2004).
